Molecular target: lactosylceramide-loaded recombinant human CD1d complex (human) (UniProt P15813)
Assay: SPR

lactosylceramide-loaded recombinant human CD1d complex (human), sequence (P15813 20-335, one chain of several): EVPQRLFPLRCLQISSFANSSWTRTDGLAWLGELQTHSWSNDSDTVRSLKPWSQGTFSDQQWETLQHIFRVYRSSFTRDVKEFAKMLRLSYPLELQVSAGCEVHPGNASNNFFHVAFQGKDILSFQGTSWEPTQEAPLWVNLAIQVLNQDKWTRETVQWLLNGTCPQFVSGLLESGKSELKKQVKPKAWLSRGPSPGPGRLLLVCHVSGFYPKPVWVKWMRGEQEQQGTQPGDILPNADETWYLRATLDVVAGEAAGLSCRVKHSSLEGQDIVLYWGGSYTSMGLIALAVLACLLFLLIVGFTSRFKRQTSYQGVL
recombinant soluble iNKT TCR 4C1369 (Vα24/Vβ11 heterodimer), sequence (A0A0B4J240 whole entry, looked up, tested part not stated, one chain of several): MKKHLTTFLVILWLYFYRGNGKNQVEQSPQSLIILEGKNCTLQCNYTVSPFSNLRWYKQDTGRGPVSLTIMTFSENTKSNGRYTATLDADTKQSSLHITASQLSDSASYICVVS

Kd: 2030 nM
Substance: recombinant soluble iNKT TCR 4C1369 (Vα24/Vβ11 heterodimer) (from UniProt A0A0B4J240)
